# Source: publication PMC9969015
# Biological target: integrins on T cells
# Test: flow cytometry on cells
# Details: read off a plot
Substance,response (parent: est. 21) [MFI],response (parent: est. 36) [MFI]
S-RBD protein with C-terminal human Fc-tag (receptor-binding domain of SARS-CoV-2 S protein) D405E,5,6.5
S-RBD protein with C-terminal human Fc-tag (receptor-binding domain of SARS-CoV-2 S protein) D442E,8,9
S-RBD protein with C-terminal human Fc-tag (receptor-binding domain of SARS-CoV-2 S protein) D586E,2,2.5
